Measurements from the DeepSol protein solubility set.

Test: soluble on expression in E. coli; label from the status in PepcDB or PDB records
For “TDKPRHRFFDAETEALYARLARALPGYDFALQGWNRDEDTFIVAAYNDRTPGSRYLYDARRDSLHKLADINPAIPEADMAPVRPVSYQSRDGLTIHGYLTLPAGRAPRNLACIVNPHGGPWARDGWGYNPEVQFLANRGFCVLQMNFRGSTGYGRKFWEAGFGQWGLKMQDDITDGVQWLIDQGIADPRRIGIYGGSYGGYATLAGVAFTPDLYAAAVDYVGVSNLFTFMNTIPPYWKPLLAKMQDMVGDPVRDKARLEATSPALHVDRIKTPLFIAQGAKDPRVNKAESDQVVQALRQRGVEVEYMVKDNEGHGFHNDENKFEFYAAMEKFFTEHLK”, the “soluble on expression in E. coli” value was “not soluble”.
In the case of “TDYAVTALRAWTRPLNYDIEHVYRITLATVQKDKDGKWKERSADQGKTMMQTLDLIAAYPGVEAACLQQWGGHYSSSSSNSSFQLDTVSLINVEDRMVSPDYFRVFRVYGADGSSPEEMAERFGKLHMNDLQRDYYLSRNALDYVEKVNGEGRESDRRYIGMSDSINYNMVSVVDGVQSEKSIRYNQTLRGLIPDQPKNEAESTGYISLKPITEEYISQNELISYSVYLRVSPEADTPDFKEQFVKRMKAVTKDDTYPVLTMNAVSEDRAGILADPVRQINNH”, the “soluble on expression in E. coli” value is reported as “not soluble”.
For “TEKFTWNTNVSYSTNSNKVVALSSEKFSMDQDYFYTGYTGEPIQTTTHIVQVGKPIGTFYGLKSVDITDDGLWLVENKKGEHVLAEETDATDWQVLGNGIPKHYLNWNNTFNFFNFDLSINMRGAFGFQILNYQRMYYENAKPEIQYNRLNSAFDKVYGKTQLKDDQRYVSYYVEDGDYWKIDNVTLGYTFKLSKQHIIKNLRIYASVLNLATITGYKGMDPEVPLSSNTYGLLDAGTDNRDKYPTNRTYTFGVNLTF”, the “soluble on expression in E. coli” value was “not soluble”.
In the case of “TGKFKWDLGGNISFVKNKLLSLIEGSEMYVVPSSGSNLLGGSMHALINGEPISTFYMLKMEGIYQRDDEVPAKLYAKGVRAGDVRYFDYNEDGDITDADRVNVGKAIPDFYGGITSNFSYKGFDLSLFGQFSVGGKVMAAWRGVNGSEGTDHLGLALSNVKVGDRGESVEQFFNISKEVANGYWRGEGTSNSIPRPVRIGVHTGYDYDYNVQTSTRYLEDASYFKLKTVTLGYTLPESITKKIHVNSLRFYVSADNLLAFTKYSGYDPETSFSGSPGDSNYGVDFGLQPVLRTFIFGLNLNF”, the “soluble on expression in E. coli” value is reported as “not soluble”.
With “TGPQGPPGPAGPKGAKGETGPQGPPGPAGPKGAKGDSGVPLSYEFTQKVESSNGTAVFGLLSNGFVEVRITGSYSSDVFNIPYNYRPLKAGTQMALFSTSGVGVAKVGEDKITIQGYSRNAQCSGTVLYPHREF” the “soluble on expression in E. coli” value was “not soluble”.
In the case of “TGTAIYFIHGTADQPAAFKRVAERLIDTGLPDEICSLNLLAFDQRYQGKSIKFFAEQLKNKIKVNQHQRVILMAHSRGGLVASYFAEFLAKEASIDVPLVITMGTPFNGSYLAVKPLSWFSDSIREMEINSEFLAQLKQEIVEHSVSAYHFFIAKEDAIVPGESGYIKDYVDKYPESLHILDRHGHLSIMSSHRLVSHISSLLHDYIDDY”, the “soluble on expression in E. coli” value is reported as “not soluble”.
In the case of “TKDWKWKLSFNATTYKNKITSLPAEEMWSGNKKWVKGGSLYDFYLVEWAGVNPENGNPTWYRYNTNGEKITTEDYSSTTPDDKVKCGNSLPDWTGGLQSDLSFKDFTLSFLFSYSIGGKIYNGDKVSLMSQGPTGTGWSVDMLDRWTPENPYTDVPRLTTSPKSSWTNSSNRFLVDRSYLRLKNITFSYNLPKSLLNTLTLKDASIFFQAENMLTLAKQQGLDPEQTFGGSTYYRYPAMKTISFGINVKL”, the “soluble on expression in E. coli” value is reported as “not soluble”.
In the case of “TLPFRIGHGFDLHRLEPGYPLIIGGIVIPHDRGCEAHSDGDVLLHCVVDAILGALGLPDIGQIFPDSDPKWKGAASSVFIKEAVRLMDEAGYEIGNLDATLILQRPKISPHKETIRSNLSKLLGADPSVVNLKAKTHEKVDSLGENRSIAAHTVILLMKK”, the “soluble on expression in E. coli” value is reported as “soluble”.
With “TLSRDDAAQVAKVLSEALPYIRRFVGKTLVIKYGGNAMESEELKAGFARDVVLMKAVGINPVVVHGGGPQIGDLLKRLSIESHFIDGMRVTDAATMDVVEMVLGGQVNKDIVNLINRHGGSAIGLTGKDAELIRAKKLTVTRQTPEMTKPEIIDIGHVGEVTGVNVGLLNMLVKGDFIPVIAPIGVGSNGESYNINADLVAGKVAEALKAEKLMLLTNIAGLMDKQGQVLTGLSTEQVNELIADGTIYGGMLPKIRCALEAVQGGVTSAHIIDGRVPNAVLLEIFTDSGVGTLISNRKRH” the “soluble on expression in E. coli” value was “soluble”.
For “TPIINDPETVKLFLLTELQHEEREVFMVLFLDNQHRLIKKERLFLGTIYVSAVYPREIIKEALYCNAAALILAHNHPSGITEPSYSDQLITKKIQDAAELMEIRVLDHLIVGKSDCYSFAENCLL”, the “soluble on expression in E. coli” value was “not soluble”.
With “TRNVTWNIGFNATHYRNKISRLAESKKTDIIDGHAGYVNGLYYYGEGLPMYTNYVQKYAGVSEEGKPQWYYTDKQTGEMKTTTTYSQADLYLCGDAVPDLYGGINTSLSFYGFDFSTQINYSIGGQAYDYGYQALMSPPTSTHLGYNVHKDIYKAWSPENTQSDIPQWQFNDLYSVKTSDRFLTNASSISIQNIQLGYTFSKKTLRSLYLTNLRIYVACDNVYYWSKRKGFDSRVTWNGNKDSSGEYSAVRAFSAGLSLQF” the “soluble on expression in E. coli” value was “not soluble”.
With “TSIMAVTFKDGVILGADSRTTTGAYIANRVTDKLTRVHDKIWCCRSGSAADTQAIADIVQYHLELYTSQYGTPSTETAASVFKELCYENKDNLTAGIIVAGYDDKNKGEVYTIPLGGSVHKLPYAIAGSGSTFIYGYCDKNFRENMSKEETVDFIKHSLSQAIKWDGSSGGVIRMVVLTAAGVERLIFYPDEYEQL” the “soluble on expression in E. coli” value was “soluble”.
In the case of “TTDPILFMLSLVQQCRLSPKLAYGVIAGFRFLPLLKDEVQLIQQAHKIRGGAAESGIINKISALKRYTIPLLASAIRKAERTALAMESKGFTGSRNRTYYRTLSVNRRD”, the “soluble on expression in E. coli” value is reported as “not soluble”.
With “TTSMIQISDAVGYLIRPLKIFKLPVDDIVLTLSIALRFIPTMLQEISTISDAQKARGSSLNSRSIAKKIKAIVPILMPLFIASVRRAEDLATAMIMRGYSDGKNRTKFRIMK” the “soluble on expression in E. coli” value was “not soluble”.
For “TTSRQIGSDDNTSLGTNISIDGMPLSNDAMRTQLYGITGVDRSDLYVADRTVTRRTGMNAGIDLRTISTDHIETIEIERGISSVGEGNLSSGAIRIRTKQGSAPLQMRVKADPLSKLAYVGKGFKVSKRGASIHTGIDFLHNKPDVREVLDSYKRSTLHARYSDQLNYGDMIVDLGIGLMQTFSIQDSKSDQLVNEYEETYNSKYLRSSLSFDAKVRFSGSWLNSIDWLLSADYTSDLLKRKKYYISTSGPKSMPVATESGEHEGVFLPSAYYAYYEIDNQPLYFFSRFKANTDINFTERHHHHLLYGLEARSSKNIGRGVVADPTRPPYPGNNSYIRPRPNYNIPASVYAAFFVEDRASVEWGANRLGIQAGLRATHLFNLPSSYALSRKMLIEPRIKANWQYRAEHLSINLRAGYGMENKLPTLDHLYPDKIYRDFMVLNAYMQNPELDHLITYTYIHNPENPAIRENRNVKKEIGIDMTYKRFDFSLTLFHEESRRGFEYFDSYLPIAFDRYTKLIAPLPPGHKPQKEDYIQEHHKDFFVIPTVQNSAKVVKRGIEFRLRTPYLKAINTQVEVNGAYYHTLYASGIPIMFRPIVSEYEQALYPYVGYYEGSLHKHYQRFNTNVWVNTHFPRYKLIFTSFFQIIWHDASYRGHEESEFPYAYMDLDGVVHPTSKAAILEAAATNDILKYLSRERTELYYRATYKPISLRINFKATKEFSDRMRLAFFVDNIIDINPKYKQANNTTERDWSIPYFGIETTFTL”, the “soluble on expression in E. coli” value was “not soluble”.
With “TVHKQDGKVLEIELSSLKEALSFVSLIDGYYRLTADAHHYLCKEVAPPAVLENIHSNCHGPISMDFAISKLKKAGNQTGLYVLRCSPKDFNKYFLTFAVERENVIEYKHCLITKNENGEYNLSGTKRNFSNLKDLLNCYQMETVRSDSIIFQFTKCCPPKPKDKSNLLVFRTNGISDVQISPTLQRHNNVNQMVFHKIRNEDLIFNESLGQGTFTKIFKGVRREVGDYGQLHKTEVLLKVLDKAHRNYSESFFEAASMMSQLSHKHLVLNYGVCVCGEENILVQEFVKFGSLDTYLKKNKNSINILWKLGVAKQLAWAMHFLEEKSLIHGNVCAKNILLIREEDRRTGNPPFIKLSDPGISITVLPKDILQERIPWVPPECIENPKNLNLATDKWSFGTTLWEICSGGDKPLSALDSQRKLQFYEDKHQLPAPKWTELANLINNCMDYEPDFRPAFRAVIRDLNSLFTPDYELLTENDMLPNMRIGALGFSGAFEDRDPTQFEERHLKFLQQLGKGNFGSVEMCRYDPLQDNTGEVVAVKKLQHSTEEHLRDFEREIEILKSLQHDNIVKYKGVCYSAGRRNLRLIMEYLPYGSLRDYLQKHKERIDHKKLLQYTSQICKGMEYLGTKRYIHRDLATRNILVENENRVKIGDFGLTKVLPQDKEYYKVKEPGESPIFWYAPESLTESKFSVASDVWSFGVVLYELFTYIEKSKSPPVEFMRMIGNDKQGQMIVFHLIELLKSNGRLPRPEGCPDEIYVIMTECWNNNVSQRPSFRDLSLRVDQIRDSIAA” the “soluble on expression in E. coli” value was “not soluble”.
For “VAASWREQFIRAEQTHWDAVTETASETYWEGGVLSDVTALAPDPATLFISNSMPIRDMDRFGGPRDADLTVLGNRGASGIDGITSTALGAGSATSDPLVLVTGDLAYYHDMNGLLALGRCAVDATVVLLNNDGGGIFHMLPIEDHPTFEDQFRTPHGLDFEPTEALYSLQFERVADRRQFRERFAESVQTDGTQVIEVRFDAGDSHAVRDQLTE”, the “soluble on expression in E. coli” value was “not soluble”.
In the case of “VAFLCQLFGVYRSSYQAWHHRVKKPDTERIRLKSLVREAFNEGKGSAGARTIAAMVTAKGIPLGRWRAGKLMAELGLVSRQQPKHRYSHQEQEHLDIPNDLDRQFTVTEPNQVWCGDVTYIWTGKCWAYLAVVLDLFARKPIGWAMSFSADSELTKRALEMAFESRRKPQGVMFHRDQGSHYTRKAFRRLLWRYGIKQSLSRRGNCWDNSPMERFFRSLKSEWVPEEGYSDFRKAFRSITNYIQGEPRQSRDFPYVFITFLYPASIRRANGAGAG”, the “soluble on expression in E. coli” value is reported as “soluble”.
In the case of “VAITDNRGVITHVNEKFCDISQYEYYELVGTTHKIINSGFHPRSFFKQMWKTIAQGNIWKGEICNRTKQGKLYWVDTTIVPLKDNDGLLKNYISIRTDITQ”, the “soluble on expression in E. coli” value is reported as “not soluble”.
For “VASKAIFYHAGCPVCVSAEQAVANAIDPSKYTVEIVHLGTDKARIAEAEKAGVKSVPALVIDGAAFHINFGAGIDDLKGS”, the “soluble on expression in E. coli” value was “soluble”.
With “VDFHGYARSGIGWTGSGGEQQCFQTTGAQSKYRLGNECETYAELKLGQEVWKEGDKSFYFDTNVAYSVAQQNDWEATDPAFREANVQGKNLIEWLPGSTIWAGKRFYQRHDVHMIDFYYWDISGPGAGLENIDVGFGKLSLAATRSSEAGGSSSFASNNIYDYTNETANDVFDVRLAQMEINPGGTLELGVDYGRANLRDNYRLVDGASKDGWLFTAEHTQSVLKGFNKFVVQYATDSMTSQGKGLSQGSGVAFDNEKFAYNINNNGHMLRILDHGAISMGDNWDMMYVGMYQDINWDNDNGTKWWTVGIRPMYKWTPIMSTVMEIGYDNVESQRTGDKNNQYKITLAQQWQAGDSIWSRPAIRVFATYAKWDEKWGYDYTGNADNNANFGKAVPADFNGGSFGRGDSDEWTFGAQMEIWW” the “soluble on expression in E. coli” value was “soluble”.
In the case of “VEAHPSLTLFSQLRIEHEDMAIAEDDWAWLRHKGHLRLGAALDETSPFNVRLDDENYEGITADVATLVGQLLGMRIKVVSFDTHADAVAALAAGKIDLLGSHYSSAGDSSLVLSQPYARDRLAVFKRMGEKRNSPEDLAGLSVAVAREHVGELRQRFPRARFVVFGSHDEAVAAVAFGHTDLYLDDVLSAYHRINRSYYGYVRFERFADARLEGGYGFLLRRGDTNLLRVVNSAIGAINQDRLESIARRWVGSGSLPTGQRIALTPQESRWIARHPVVRLVINDDLAPLAFFNSDETFSGIASDLLDMISRRTGLHFQVTPRSGGFPEQIGVLARKEADLAIMSRSSKREEMLRFTRSFLSTSYVLVTRADDKGRAEIPGSLDGKRIAIPAGHVGMQQVRERYPQASMVEVGVALDAMNLVYEGRADAAVVPLVTARYYIVRLFRERLAIADLVPIGAATAHFAVRRGDAELQSILDKALLSISPDDLSDIVNRW”, the “soluble on expression in E. coli” value is reported as “not soluble”.
